Data on 40 sequences can be found in the nanobody polyreactivity screen of Harvey et al. (2022).

The nature of this data set: yeast display, Sf9 membrane polyspecificity reagent, FACS + sequencing; frameworks hold sequencing errors. In short, it runs like this:
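Nanobodies from a synthetic yeast display library (Saccharomyces cerevisiae BJ5465), induced 36–48 hours with galactose, were stained 1 hour at 4 °C with 10% biotinylated, detergent-solubilized Sf9 membrane reagent, enriched on streptavidin microbeads, then FACS-sorted. Anti-HA (expression) and streptavidin (reagent binding) fluorescence set low and high (top ~1%) gates. Polyreactivity labels come from the gate of origin. Genes were colony-PCR amplified, MiSeq 2 × 250 sequenced and filtered by CDR length.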
“QVQLVESGGGLVQAGGSLRLSCAASGRTFFVNAMGWYRPAPGKERELVAAITWSGGSTYYADSVKGRFTISRDNAKNTVYLQMNSLKAEDTAVYYCNADYQWYLGGYDYWGQGTQVTVSS”: the “polyreactivity (PSR sort gate)” value is given as “high polyreactivity”.

For “QVQLVESGGGLVQAGGSLRLSCAASGRTFFVNAMGWYRQAPGKERELVAAITWSGGSTYYADSVKGRFTISRDNAKNTVYLQMNSLKPEDTAVYYCAAEYYSYSYSYYYYGYEYWGQGTQVTVSS”, the “polyreactivity (PSR sort gate)” value was “high polyreactivity”.

As for “QVQLVESGGGLVQAGGSLRLSCAASGRTFFVYAMGWYRPAPGKERELVASITLSGGSTYYADSVKGRFTISRDKAKNTVYLQINSLKREDTAGYYCAKGWSRDNDLEREDEYWGHGTQVTVSS”, the “polyreactivity (PSR sort gate)” value is “low polyreactivity”.

For “QVQLVESGGGLVQAGGSLRLSCAASGRTFFVYAMGWYRQAPGKERELVAAISRGGRTYYADSVKGRFTISRDNAKNTVYLQMNSLKPEDTAVYYCAAESWYQQGDYWGQGTQVTVSS”, the “polyreactivity (PSR sort gate)” value is given as “low polyreactivity”.

Consider “QVQLVESGGGLVQAGGSLRLSCAASGRTFFYYAMGWYRQAPGKERELVAAITTDGGTTSYADSVKGRFTISRDNAKNTVSLQMNSLKPEETAVYYCAADASYQYYPYDYWGQGTQVTVSS”, for which the “polyreactivity (PSR sort gate)” value is given as “low polyreactivity”.

As for “QVQLVESGGGLVQAGGSLRLSCAASGRTFFYYAMGWYRQAPGKERELVAGITKRGGSTYYADSVKGRFTISRDNAKNSVYLQMNSLKPEDSAVYYCAKSFTQSSTDGYWGQGTQVNVSS”, the “polyreactivity (PSR sort gate)” value is reported as “high polyreactivity”.

“QVQLVESGGGLVQAGGSLRLSCAASGRTFFYYAMGWYRQSPGKERELVATITGIGGSTYADSVKGRFTISRDNAKNTVYLQMNSLKPEDTAVYYCNAERGVYWGRYPYKYDYWGQGTQVTVSS”: the “polyreactivity (PSR sort gate)” value was “low polyreactivity”.

With “QVQLVESGGGLVQAGGSLRLSCAASGRTFFYYTMGWYRQAPGKERELVAAITYSGTSTYYADSVKGRFTISRDNAKNTVYLQMNSLKPEDTAVYYCAADWYVTHQGYTSGIWYVEYDYWGQGTQVTVSS”, the “polyreactivity (PSR sort gate)” value is recorded as “low polyreactivity”.

With “QVQLVESGGGLVQAGGSLRLSCAASGRTFGANAMGWYRQAPGKERELVAASTQDGGSTYYADSVKGRFTISRDNAKNTVYLQMNSLKPEDTAVYYCAADLVVFVQFDVAVDYYYWGQGTQVTVSS”, the “polyreactivity (PSR sort gate)” value is given as “low polyreactivity”.

As for “QVQLVESGGGLVQAGGSLRLSCAASGRTFGENAMGWYRQAPGKERELVAAITGGDSTNYADSVKGRFTISRDNAKNTVYLQMNSLKPEDTAVYYCAAYGVKVLWTLTTYDYWGQGTQVTVSS”, the “polyreactivity (PSR sort gate)” value is listed as “low polyreactivity”.

With “QVQLVESGGGLVQAGGSLRLSCAASGRTFGFNVMGWYRQAPGKERELVAAISWSGGSTYYADSVKGRFTISRENAKNTVYLQMNSLKPEDTAVYSCNKRYVHRYGYWGQGTQVTVTS”, the “polyreactivity (PSR sort gate)” value is given as “low polyreactivity”.

Take “QVQLVESGGGLVQAGGSLRLSCAASGRTFGFYAMGWYRQAPGKERELVATISSSGGSTYYADSVKGRFTISRDNAKNTVYLQMNSLKPEDTAVYYCAKVVSGWRSHYIGDYWGQGTQVTVSS”: the “polyreactivity (PSR sort gate)” value was “low polyreactivity”.

For the sequence “QVQLVESGGGLVQAGGSLRLSCAASGRTFGFYGMGWYRQAPGKEREFVAAITRRGGSTYYADSVKGRFTISRDNAKNTVYLQMNSLNPEDTAVYYCNAARGAYYRWWGFGSDYWGQGTQVTVSS”, the “polyreactivity (PSR sort gate)” value is on record as “high polyreactivity”.

As to “QVQLVESGGGLVQAGGSLRLSCAASGRTFGFYTMGWYRPAPGKERELVAAITSRGGITTYADSVKGRFTISRDNAKNTVYLQLNSLIPEDTAVYYCAASLRAPSLGHYYYWGQGTQVTVSS”, the “polyreactivity (PSR sort gate)” value is given as “high polyreactivity”.

As for “QVQLVESGGGLVQAGGSLRLSCAASGRTFGGNAMGWYRQAPGKERELVASITKRSGSTYYADSVKGRFTISRDNAKNTVYLQMNSLKPEDTAVYYCNTKPSYYFFANTYYGYNDDYWGQGTQVTVSS”, the “polyreactivity (PSR sort gate)” value is given as “high polyreactivity”.

As for “QVQLVESGGGLVQAGGSLRLSCAASGRTFGGNAMGWYRQAPGKERELVAVIRSTGGSTYYADSVKGRFTISRDNAKNTVYLQMNSLKPEDTAVYYCAKGRGRNFGYWGQGTQVTVSS”, the “polyreactivity (PSR sort gate)” value was “high polyreactivity”.

In the case of “QVQLVESGGGLVQAGGSLRLSCAASGRTFGGNSMGWYRQAPGKERELVAAISGSGGSTYYADSVKGRFTISRDNAKNTVYLQMNSLKPEDTAVYYCAKASRKGWRYDSWGQGTQVTVSS”, the “polyreactivity (PSR sort gate)” value is “high polyreactivity”.

On to “QVQLVESGGGLVQAGGSLRLSCAASGRTFGGNTMGWSRQAPGKERELVAAISSGGSTYYADSVKGRFTISRDNAKNTVYLQMNSLKPEDTAVYYCAKSDPVGYYWDDPVTFDYWGQGTQVTVSS”, for which the “polyreactivity (PSR sort gate)” value was “low polyreactivity”.

For “QVQLVESGGGLVQAGGSLRLSCAASGRTFGGYAMGWYRQAPGKERELVAAISKRSGSTYYADSVKGRFTISRDNAKNTVYLQMNSLKPEDTAVYYCNKVWFQRSVQPVEYDYWGQGTQVTVSS”, the “polyreactivity (PSR sort gate)” value was “high polyreactivity”.

For the sequence “QVQLVESGGGLVQAGGSLRLSCAASGRTFGGYAMGWYRQAPGKERELVAAISKSGGSTYYAVSVKGRFTISRDTAKNTVYLQMNSLKPEDTAVYYCAAQGSSYSTRVWRRYYYWGQGTQVTVSS”, the “polyreactivity (PSR sort gate)” value is “high polyreactivity”.

“QVQLVESGGGLVQAGGSLRLSCAASGRTFGGYAMGWYRQAPGKESELVARISRSGGSTYYADSVKGRFTISRDNAKNTVYLQMNSLKPEDTAVYYCNTGLRNAYGWPQDDYWGQGTQVTVSS”: the “polyreactivity (PSR sort gate)” value is listed as “low polyreactivity”.

Consider “QVQLVESGGGLVQAGGSLRLSCAASGRTFGIYAMGWYRQAPGKERELVAAITWSGDSTYYADSVKGRFTISRDNAKNTVYLQMNSLKPEDTAVYYCAADYVGVTSVRYDYWGQGTQVTVSS”, for which the “polyreactivity (PSR sort gate)” value was “low polyreactivity”.

“QVQLVESGGGLVQAGGSLRLSCAASGRTFGIYAMGWYRQAPGKERELVATISWRGGSTYYADSVKGRFTISRDNAKNTVYLQMNSLKPEDTAVYYCAAGYYPYWGQGTQVTVSS”: the “polyreactivity (PSR sort gate)” value is “low polyreactivity”.

As to “QVQLVESGGGLVQAGGSLRLSCAASGRTFGIYVMGWYRQAPGKEMEWVAAIRGGGTTYYADSVKGRFTISRENAKNTVYLQMNSLKPEDTAVYYCAAVVKWWGQSRYDYWGQGTQVTVSS”, the “polyreactivity (PSR sort gate)” value was “high polyreactivity”.

Regarding “QVQLVESGGGLVQAGGSLRLSCAASGRTFGKYAMGSYTQAPGKETELVAAISSSGGSTYYADSVKGRFTISRDNAKNTVYLQMNSVKPEDTAVYYCGARWSYRDDYWGQGTQVTVSS”, the “polyreactivity (PSR sort gate)” value is on record as “high polyreactivity”.

Turning to “QVQLVESGGGLVQAGGSLRLSCAASGRTFGKYAMGWDRQAPGKEMELVAAISTDVGDTYYADSVKGRFTISRDNAKNTVYLQMNSLKPEDTAVYYCAASFVYYGVDFVSWFWEGDYWGQGTQVTVSS”, the “polyreactivity (PSR sort gate)” value was “low polyreactivity”.

On to “QVQLVESGGGLVQAGGSLRLSCAASGRTFGKYAMGWYRQAPGKERELVASITFSSGSTYYADSVKGRFTISRDNAKNTVYLQMNSLKPEDTAVYYCAKRGWGIYDYWGQGTQVTVSS”, for which the “polyreactivity (PSR sort gate)” value is given as “low polyreactivity”.

As for “QVQLVESGGGLVQAGGSLRLSCAASGRTFGKYAMGWYRQAPGKERELVATISLSGGSTYYADSVKGRFTISRDNAKNTVYLQMNSLKPEDTAVYYCAARRKFDYWGQGTQVTVSS”, the “polyreactivity (PSR sort gate)” value is on record as “high polyreactivity”.

“QVQLVESGGGLVQAGGSLRLSCAASGRTFGKYAMGWYTQAPGKEREFVAAISWSGATTRYADSVKGRFTISRDNAKNTVYLQMNSLKPEDTAVYYCAATYYYVYGYRGDYWGQGTQVTVSS”: the “polyreactivity (PSR sort gate)” value was “high polyreactivity”.

On to “QVQLVESGGGLVQAGGSLRLSCAASGRTFGKYTMGWYRQAPGKERELVAAINRRGGSTYYADSVKGRFTISRDNAKNTVYLQMNSLKPEDTAVYYCAKDGYSIDRYYWGQGTQVTVSS”, for which the “polyreactivity (PSR sort gate)” value is reported as “high polyreactivity”.

Regarding “QVQLVESGGGLVQAGGSLRLSCAASGRTFGLYAMGWYRQAPGKERELVAAIDQSTGSTYYADSVKGRFTISRDHAKNTVYLQMNSLKPEDTAVYYCAAEEASTVRYYWYDYWGQGTQVTVSS”, the “polyreactivity (PSR sort gate)” value was “high polyreactivity”.

“QVQLVESGGGLVQAGGSLRLSCAASGRTFGLYAMGWYRQAPGKERELVAAISWGGGRTYYADSVKGRFTISRDNAKNTVYLLMNSLKPEDTAVYYCNALYATYYLGYDYWGQGTQVTVSS”: the “polyreactivity (PSR sort gate)” value is reported as “high polyreactivity”.

“QVQLVESGGGLVQAGGSLRLSCAASGRTFGLYAMGWYRQAPGKERELVATISVSSGSTYYADSVKGRFTISRDNAKYTVYLQMNSLKPEDTAVYYCNVRYKRNRWQYDYWGQGTQVTVSS”: the “polyreactivity (PSR sort gate)” value is reported as “high polyreactivity”.

“QVQLVESGGGLVQAGGSLRLSCAASGRTFGLYDMGWYRQAPGKERELVAGITRRGGCTYYADSVKGRFTISRDNAKNTVYLQMYSLKPEDTAVYYCAAGTIYLRHAQSPFDYWGQGTQVTVSS”: the “polyreactivity (PSR sort gate)” value is given as “high polyreactivity”.

Turning to “QVQLVESGGGLVQAGGSLRLSCAASGRTFGPNVIGWYRQAPGKERELVAAITSGGTTYYADSVKGRFTISRDNAKNTVYLQMNSLKPEDTAVYYCNARYVYHSSFAGFDYWGQGTQVTVSS”, the “polyreactivity (PSR sort gate)” value was “low polyreactivity”.

As for “QVQLVESGGGLVQAGGSLRLSCAASGRTFGPYAMGWYRQAPGKEREFVAAISYSGGSTYYADSVKGRFTISRDNAKNTVYLQMNSLKPEDTAVYYCAVDIDSNSGTRDYWGQGTQVTVSS”, the “polyreactivity (PSR sort gate)” value is on record as “low polyreactivity”.

Take “QVQLVESGGGLVQAGGSLRLSCAASGRTFGQYAMGWYRQAPGKERELVAAITGGGSTNYADSVKGRFTISRDNAKNTVYLHMNSLKPEDTAVYYCAAKARSYWYPRLYIYEGDYWGQGTQVTVSS”: the “polyreactivity (PSR sort gate)” value is “low polyreactivity”.

Turning to “QVQLVESGGGLVQAGGSLRLSCAASGRTFGQYAMGWYRQAPGKERELVAAITTRGGSTYYADSVKGRFTISRDNAKNTVYLQMNSLKPEDTAVYYCIADYPVKRRRGRDYWGQGTQVTVSS”, the “polyreactivity (PSR sort gate)” value is “high polyreactivity”.

Consider “QVQLVESGGGLVQAGGSLRLSCAASGRTFGQYVMGWYRQAPGKERELVAAISSGDSTNYADSVKGRFTISRDNAKNTVYFQMNSLKPEDTAVYYCAAVYWVLWQGSTYGYWGQGTQVTVSS”, for which the “polyreactivity (PSR sort gate)” value is listed as “low polyreactivity”.

In the case of “QVQLVESGGGLVQAGGSLRLSCAASGRTFGRNAMGWYRQAPGERELVAVISRRGSTYYADSVKGRFTISRDNAKNTVYLQMNSLKPEETAVDYCAAYYYIGGKYGSQVYEYDYWGQGTQVTVSS”, the “polyreactivity (PSR sort gate)” value is “low polyreactivity”.
